Results: the supplement of paper PMC10567573

B1: GFOD1 (parent)
chain: EEAEELAKEMSVPFYTSRIDEVLL

Variants of: B1
Experiment: protein stability index of a GFP-peptide fusion (GPS, HEK-293T) (PSI 1-6); higher = more stable
Settings: c terminus: a fixed tail appended
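Further: lentivirally expressed fusions sorted by FACS into six bins by GFP to DsRed ratio, PSI derived from sequencing read proportions per bin multiplied by bin number.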

Protein stability index of substitutions, site by site:
E1: Y 2.98 | T 3.56 | M 3.45 | I 2.46 | P 3.51 | V 2.95 | N 2.83 | K 4.03 | C 3.08
E9: W 2.62 | K 2.66 | Q 3.17 | F 3.12 | Y 2.94 | R 2.7 | H 3.2 | V 3.1 | I 2.15 | S 2.92
E21: R 2.8 | V 2.45 | Y 2.66 | Q 3.39 | D 4.08 | L 1.61 | S 3.83 | N 3.69 | A 2.66 | C 1.97 | K 2.56 | W 1.83 | P 3.92 | M 1.78 | T 3.65
A3: N 4.03 | C 2.56 | H 3.84 | K 4.38 | L 3.11 | G 3.95
D20: G 2.42 | C 2.46 | W 2.59 | Y 2.47 | A 2.74 | M 2.33 | P 3.55 | I 1.9 | F 2 | T 2.66 | L 2.07 | R 3.04 | V 2.08 | H 2.73 | E 3.91 | N 3.29 | K 2.78
E5: L 4.05 | S 3.13 | I 2.57 | N 3.23 | H 3.6 | P 3.96 | C 3.79 | T 3.48 | V 2.58 | Y 3.98
K8: V 2.85 | G 4.1 | R 4.04 | F 2.25 | I 2.76 | E 4.17 | H 3.66 | S 2.89 | T 3.89 | D 3.94 | L 2.46 | M 3.29 | A 3.66
F14: W 3.66 | V 3.86 | R 4.22 | T 4.51 | E 4.4 | H 4.2 | K 4.2 | I 4.05 | S 4.37 | D 4.9 | A 4.46 | P 4.85 | Q 5 | N 4.68
V12: E 4.38 | Q 3.91 | I 3.6 | N 4.56 | P 4.14 | L 3.67 | T 4.2 | F 2.91 | A 3.2 | R 3.89 | H 3.03 | K 3.99 | C 3.71
S11: C 3.36 | I 3.29 | P 3.87 | L 4.46 | Q 4.04 | Y 2.86 | N 2.23 | E 4.74 | M 3.67 | T 4.12 | F 2.72 | R 3.02 | D 4.5 | A 3.51 | H 4.04
A7: R 3.62 | Q 4.06 | N 4.02 | W 2.39 | I 2.77 | L 2.93 | C 4.06 | Y 3.07 | K 3.32 | M 3.14 | D 4.62 | H 4.2 | F 2.99 | E 3.87 | G 4 | P 4.5 | S 3.6 | V 4.01
E2: M 2.53 | I 2.18 | Y 2.39 | S 3.41 | R 2.94 | H 3.06 | F 2.1 | L 2.76 | T 3.2 | D 3.72 | A 3.66 | V 3.64
L23: Y 3.42 | P 4.57 | Q 4.72 | V 4.26 | S 4.54 | T 3.87 | N 4.21 | H 3.9 | F 2.98 | W 3.02 | I 3.66 | G 3.66
V22: Y 3.78 | R 4.26 | W 3.62
